Laboratory results from publication PMC9942873 (Immunity, 2023).
Numbering of substitutions follows the chain as printed.

B1: RUPA-156 (antibody, V domains shown)
VH: EVQLVESGGGLVQPGGSLRLSCVVSGFTFSRYSMYWVRQAPGKGPEWVSYIDSTGTTIYYADSVKGRFTISRDNAKSSLSLQMSSLRDDDRGVYYCARDGRKDSGSFLDHWGQGTLVTVSS
VL: DIQMTQSPSSLSASVGDRVTITCRASQSISEWLAWYQQKPGKAPRLLIYQASSLQSGVPSRFSGSGSGTEFTLTISSLQSDDFATYYCQQFDTYWTFGQGTKVEIK
notes: human IgG1; source: recombinant human IgG1, 293T (Protein A purified) or GenScript
B2: RUPA-114 (antibody, V domains shown)
VH: QVYLVQSGAEVKKPGASVKVSCKASGYDFTSYGIAWVRQAPGQGLEWMGWIGGYDDKTDYAQNLQGRFTVTTDTSTSTAYMELRSLKSDDTAVYYCARGGDRGDGLRFYYFALDVWGQGTTVTVSS
VL: DIVLAQSPGTLSLSPGEGATLSCRASQSIYNSYLAWYQHKPGQAPRLLIYGASSRATGIPDRFSGSGSGTDFTLTISRLEPEDFAVYYCQLYGRSSWTFGQGTKVEIK
notes: as for B1
B3: RUPA-116 (antibody, V domains shown)
VH: QVQLQQWGAGLLKPSETLSLTCVVYGGSFSDYYWSWVRQPPGKGLEWIGEVNHSGTTNYNPSLKSRLTISVDTSKNQISLRLNSLTAADTAVYYCARRSSGYYRQSRYTGWFDPWGRGTLVTVSS
VL: EIVMTQSPATLSVSPGERATLSCRASQSITSNLAWYQQKPGQAPRLLIYGASTRATGIPARFSGSGSGTEFTLTISSLQSDDFALYYCQQYNNWPGLTFGGGTKVEIK
notes: as for B1
B4: RUPA-155 (antibody, V domains shown)
VH: QVQLQQWGAGLLKPSETLSLTCAVEGDSLGDYYWSWIRQPPGKGLEWIGDINHSGTTNYIPSLKSRVTISVDSSRNQFSLRLNFVTAADTATYFCARRASGWYRQSRYTGWFDPWGQGTLVTVSS
VL: B3 VL with Q27H, T30N, L33V, S80T, D81E, L85V, T98S
notes: as for B1
B5: RUPA-119 (antibody, V domains shown)
VH: QVRLQQWGAGLLKPSETLSLTCGVSGGSFSDYYWTWIRQPPGKGLEWIGDISHSANTNYNESLQSRLTISVDTSKTQFSLRLASVTAADTALYFCARRSSGWYRQSRYTGWFDPWGQGTLVTVSS
VL: B3 VL with T56A, S77T, D81E, L85V, K104T
notes: as for B1
B6: RUPA-94 (antibody, V domains shown)
VH: QVQLRESGPGLVKPSETLSLTCSVSGGSITSSPYYWAWIRQPPGKGLEWIGSIYYSGGAYYNPSLKSRVTMSVDTSKNQFSLKVNSVTAADTAVYYCARRPNPGFWGGGYYFDYWGQGTLVTVSS
VL: QSALTQPASVSGSPGQSITISCTGSSSDVGSYNLVSWYQHHPGKAPKLMISEVSKRPSGVSDRFSGSKSGNTASLTISGLQAEDEADYYCCSYADSSTRNYVFGTGTKVTVL
notes: as for B1
B7: RUPA-130 (antibody, V domains shown)
VH: EVQLVESGGGLVKPGGSLRLSCEASGFTFRNAWMSWVRQAPGKGLEWVGRIKSYIDGGTADYAAPVKGRFSISRDDSKNTLFVQMNSLKTEDTAVYYCTTDSWAGEVGNYYFDNWGQGTLVTVSS
VL: QSALTQPASVSGSPGQSITISCTGTSSDVGSYNFVSWYQQHPGKAPKLMIYQVTWRPSGVSNRFSGSKSGNTASLTISGLQAEDEADYYCCSYSKSSTYVFGTGTKVSVL
notes: source: recombinant human IgG1, 293T (Protein A purified) or GenScript
B8: RUPA-165 (antibody, V domains shown)
VH: VQLQQWGAGLLKPSETLSLTCLVNGGSFSDYYWSWIRQPPGRGLEWIGDVNHSGTTNHRPSLQSRVTLSLDMSKNQFSLKLTSVTAADTAVYFCARRSSGYYRGSRYTGWLDPWGQGTLVTVSS
VL: IVMTQSPLSLSVSPGERATLSCRASQTITRNLAWYQQKPGQAPRLLIYGASTRAPDIPARFSASGSGTEFTLTISSLQSEDFALYYCQQYNNWPGLTFGGGTKVEIK
notes: as for B1
B9: RUPA-122 (antibody, V domains shown)
VH: QITLKESGPTLVKPTQTLMLTCSVSGFSLSNNGVAVGWVRQPPGKALEWLALIYWNDDSFYRPSLKSRLTINKDTSKNQVVLTMTNVAPVDTATYFCARTMKKITMIRGVPYEGGVQGFDPWGPGILVTVSS
VL: DIQMTQSPSSLSASVGDRVTITCRASQGIRDDLAWYQQKPGKAPERLIYAASSLQSGVPSRFSGSGYGTEFTLTISSLQPEDFATYYCQQYSGYFTFGGGTKVEIN
notes: as for B1
B10: RUPA-164 (antibody, V domains shown)
VH: QVQLQESGPGLVKPSETLSLTCSVSGGSMTSFYWSWIRQPPGKGLEWIGYVYYNGTTNYKPSLKSRVTISVDMSKNQVSLKLSSVTAADTAVYYCARDRVVGSYYYGMDVWGQGTTVTVSS
VL: EIVLTQPPVSLSLSPGEGATLSCRASQSVSSSYLAWYQQKPGQAPRLLMYSASRRATGIPDRFTGSGSGTDFTLTISRLEPEDFALYYCQHYGGSPRETFGQGTKVEIK
notes: as for B1
B11: RUPA-141 (antibody, V domains shown)
VH: EVQLVESGGGLVQPGESLRLSCAASGFTFNTYWMTWVRQAPGKGLEWVANINQDGSQKNYVDSVKGRFTVSRDNAKKSLFLQMNSLRAEDTAVYYCARDNGARYSGVWYDGWYDAFDIWGRGTVLTVSS
VL: AIQMTQSPSSLSASVGDRVTITCRASQGIKNDLGWYQQKTGKAPKLLIYAASSLQSGVPSRFSGSGSGTDFTLTISSLQPEDFATYYCLQDYNYPRTFGQGTKVEIK
notes: as for B7
B12: RUPA-158 (antibody, V domains shown)
VH: QVQLVQPGAEVKKPGASVKVSCKASGYIFSTYGISWVRQAPGQGLEWMGWTSSYSDDTNYAQKFQDRVTMTTDTSTSTAYMELRSLRSGDTAVYYCARGGDRGDGPRYYYYGLDVWGQGTTVTVSS
VL: B2 VL with D1E, A5T, G9S, G18R, I29L, H39Q, D61G, T73S, Q90S
notes: as for B1
B13: RUPA-67 (antibody, V domains shown)
VH: QVQLLESGPGLVKPSETLSLTCTVSGASISTSYWSWIRQPAGKGLEWIGRFHISESSNYNPSLKSRLTLSADTSKNQVSLRLSSVTAADTAVYYCARDVSPEECVSTKCYRRPGYMDVWGKGTSVTVSS
VL: DIQMTQSPSSLSASVGDRVTITCRASQSIRNYLNWYLQKPGKAPKLLIFGASSLQSGVPSRFSGSGSGTDFTLTISSLLPEDFATYYCQQSYTTPRTFGQGTKVEIK
notes: as for B1
B14: RUPA-51 (antibody, V domains shown)
VH: B12 VH with G89D, Y108F
VL: B2 VL with D1E, A5T, G18R, I29L, H39Q, D61G, T73S, Q90S
notes: as for B1
B15: RUPA-48 (antibody, V domains shown)
VH: EVQLVESGGGLVQPGRSLRLSCAASGFSFDDHAMHWVRQAPGKGLEWVSGISWNSGNIGYADSVKGRFTISRDNAKNSLYLQMNSLRPEDTALYHCAKDGGYCSGIRCYHLRGMDVWGQGTTVTVSS
VL: EIVLTQSPATLSLSPGERATLSCRASQSVTNYLAWYQQKPGQAPRLLIYDASNRATGIPARFSGSGSGTDFTLTISSLEPEDFGVYYCQQRSSWPPYTFGQGTKLEIK
notes: as for B1

biological target: Pfs48/45 D1-2 (Plasmodium falciparum 3D7, UniProt Q8I6T1); experiment: ELISA; conditions: both partners purified
Sequence (Q8I6T1 28-289): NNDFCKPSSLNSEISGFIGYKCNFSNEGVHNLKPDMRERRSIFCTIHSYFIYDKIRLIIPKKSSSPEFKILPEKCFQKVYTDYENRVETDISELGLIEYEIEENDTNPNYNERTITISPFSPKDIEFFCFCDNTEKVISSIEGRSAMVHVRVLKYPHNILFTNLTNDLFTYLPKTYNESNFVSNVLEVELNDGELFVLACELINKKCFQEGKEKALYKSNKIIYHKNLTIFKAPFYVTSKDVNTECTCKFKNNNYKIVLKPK

| Binder | binding result |
| --- | --- |
| B1 | binds |
| B2 | binds |
| B3 | binds |
| B4 | binds |
| B5 | binds |
| B6 | binds |
| B7 | binds |
| B8 | binds |
| B9 | binds |
| B10 | binds |

biological target: T1, recombinant full-length Pfs48/45 (Plasmodium falciparum 3D7, UniProt Q8I6T1); experiment: ELISA; conditions: both partners purified
T1 sequence (Q8I6T1 28-428): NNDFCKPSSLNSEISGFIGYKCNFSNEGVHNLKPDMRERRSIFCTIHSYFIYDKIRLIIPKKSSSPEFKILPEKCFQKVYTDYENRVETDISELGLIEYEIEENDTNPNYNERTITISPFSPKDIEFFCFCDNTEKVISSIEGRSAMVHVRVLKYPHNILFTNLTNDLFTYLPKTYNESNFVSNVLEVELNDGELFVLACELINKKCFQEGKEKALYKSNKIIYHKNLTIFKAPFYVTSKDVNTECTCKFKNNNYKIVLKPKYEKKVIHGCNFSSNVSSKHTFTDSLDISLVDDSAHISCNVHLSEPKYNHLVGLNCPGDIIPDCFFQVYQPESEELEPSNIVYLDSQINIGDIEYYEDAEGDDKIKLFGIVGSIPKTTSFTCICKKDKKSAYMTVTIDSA

| Binder | binding result |
| --- | --- |
| B1 | binds |
| B11 | binds |
| B2 | binds |
| B12 | binds |
| B3 | binds |
| B4 | binds |
| B5 | binds |
| B6 | binds |
| B7 | binds |
| B8 | binds |
| B9 | binds |
| B10 | binds |

biological target: T1, recombinant full-length Pfs48/45; experiment: ELISA; conditions: both partners purified; remark: another data set of the same source

| Binder | binding result |
| --- | --- |
| B13 | binds |
| B14 | binds |
| B15 | binds |
